Holding throughout (test): ELISA
The target in test [1] is T1, HD21 (huntingtin exon 1 protein with 21 polyQ repeats after cleavage of the GST tag; aggregation reaction) (human, UniProt P42858 1-88).
T1 chain: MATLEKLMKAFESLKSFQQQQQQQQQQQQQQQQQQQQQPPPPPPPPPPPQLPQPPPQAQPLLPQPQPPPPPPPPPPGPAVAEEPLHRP

The target of test [2] is T2, HD49 (huntingtin exon 1 protein with 49 polyQ repeats after cleavage of the GST tag; aggregation reaction) (human, UniProt P42858 1-88).
T2 chain: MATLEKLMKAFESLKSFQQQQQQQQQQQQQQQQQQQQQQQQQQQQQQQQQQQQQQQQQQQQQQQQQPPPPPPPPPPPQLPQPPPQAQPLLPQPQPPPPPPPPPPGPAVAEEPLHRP

Test [3] addresses T3, GST-HttExon1Q21 (recombinant huntingtin exon 1 protein with 21 polyQ repeats fused to an N-terminal GST tag) (;human, UniProt P08515 1-218 = GST; P42858 1-88).
Test [4] concerns the target T4, BSA-coupled synthetic peptide of the P-rich domain sequence of huntingtin exon 1 (coupled to BSA).
T4 peptide: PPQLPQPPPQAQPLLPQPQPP

The target of test [5] is T1, HD21 (huntingtin exon 1 protein with 21 …).
Test [6] deals with T2, HD49 (huntingtin exon 1 protein with 49 …).
Test [7] addresses T3, GST-HttExon1Q21 (recombinant huntingtin …). The source holds these as a separate data set.
Target sequence in this assay (P08515 1-218, tags or fused parts left off): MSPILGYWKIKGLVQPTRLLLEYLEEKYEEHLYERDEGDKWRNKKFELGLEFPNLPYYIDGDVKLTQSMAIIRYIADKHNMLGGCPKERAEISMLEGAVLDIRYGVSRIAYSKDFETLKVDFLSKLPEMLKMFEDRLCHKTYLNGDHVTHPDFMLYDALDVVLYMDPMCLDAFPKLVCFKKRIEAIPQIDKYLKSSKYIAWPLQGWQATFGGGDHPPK
The target in test [8] is T1, HD21 (huntingtin exon 1 protein with 21 …).
The target in test [9] is T2, HD49 (huntingtin exon 1 protein with 49 …).
Test [10] addresses T3, GST-HttExon1Q21 (recombinant huntingtin …). The source holds these as a separate data set.
For test [11], the target named is T1, HD21 (huntingtin exon 1 protein with 21 …).
Test [12] addresses T3, GST-HttExon1Q21 (recombinant huntingtin …). The source holds these as a separate data set.
Test [13] concerns the target T1, HD21 (huntingtin exon 1 protein with 21 …).
The target of test [14] is T2, HD49 (huntingtin exon 1 protein with 49 …).
The target of test [15] is T3, GST-HttExon1Q21 (recombinant huntingtin …). This is another data set of the same source.
For test [16], the target named is T5, BSA-coupled synthetic peptide of the 14 C-terminal amino acids of huntingtin exon 1 (coupled to BSA).
T5 peptide: PPGPAVAEEPLHRP

For test [17], the target named is T1, HD21 (huntingtin exon 1 protein with 21 …).
In test [18] the target is T2, HD49 (huntingtin exon 1 protein with 49 …).
Test [19] deals with T3, GST-HttExon1Q21 (recombinant huntingtin …). The source holds these as a separate data set.
Test [20] concerns the target T6, BSA-coupled synthetic peptide of the polyP repeat sequence of huntingtin exon 1 (coupled to BSA).
T6 peptide: PPPPPPPPPPP

Where two headings read alike, the source gives them in different places. Bounds are passed on as bounds.

B1: NI-302.63F3 (antibody, V domains shown)
VH: QVQLVQSGSAFKKPGTSVKVSCKASGYTFETRSMNWVRQAPGQGLEYMGWINTNTGNRTYVQAFRGRFVFSLDTSVSTAYLQISNLKTEDTAVYYCARGAGGGYWFDSWGQGTLVTVSS
VL: DIQMTQSPDSLAVSLGERATINCKSNQSLFYSSNNNNYLAWYQHKSGQPPKLLVYWGSTRESGVPDRFSGSGSGTDFTLTISSLQAEDVAIYYCHQYYHNPYTFGQGTKLEIK
As to B1, the concentration giving a half-maximal response (EC50) in test [1] turned out to be 0.3 nM; in test [2], 0.4 nM; in test [3] it was 0.2 nM; in [4], 0.3 nM; in [5], 0.3 nM; in test [6] it was 0.4 nM. Besides, the half-maximal effective concentration (EC50) in [7] amounted to 0.2 nM.

B2: NI-302.15E8 (antibody, V domains shown)
VH: EVQLVESGGGLIQPGGSLRLSCAVSGFTVSSYSMNWVRQAPGKGLEWVSYTSSSRSNTKKYADSVKGRFTISRDNARNSLYLQMNSLRDEDTAVYYCARAGDFGELLTGEGYYGMDVWGQGTTVTVSS
VL: SYELTQPPSVSVSPGQTATITCSGDELGDKYVGWYQQKPGQSPLLVIYQDAKRPSGIPERFSGSNSGNTATLTISGTQAMDEADYYCQAWDSGTMVFGGGTRLTVL
Consider B2, for which the EC50 was over 100 nM in test [5]; over 100 nM in test [6]; 9.3 nM in [7]; over 100 nM in [8]; over 100 nM in test [9]; 9.3 nM in test [10].

B3: NI-302.35C1 (antibody, V domains shown)
VH: EVQLVESGGNLVQPGGSLRLSCTASGFTFSITALSWVRQAPEKGPQWVSAITGNAYGTYYADSVKGRFTISRDNAKNTLYLQMNGLRAEDTAIYYCVKGIASDSSGYSAFWGPGTLVTVSS
VL: EIVLTQSPATLSLSPGERATLSCRASQSVDNQFAWYQQKPGQAPRLLIYDASRRAPGIPDRFSGSGSGTDFTLTISSLEPEDFAIYYCQHRYTWLYTFGQGTRLEIK
For B3, the EC50 in [5] turned out to be 7.9 nM; in test [7] it was 4.6 nM; in test [11], 7.9 nM; in [12], 4.6 nM.

B4: NI-302.72F10 (antibody, V domains shown)
VH: EVQLVETGGGFVQPGGSLRLSCAASGFNFGSYAMSWVRQAPGKGLEWVSDISGIGSNTYYADSVKGRFTISRDNSDNTLYLDMSSLRAEDTARYYCAKDRKRSGWYEQWGQGTLVTVSS
VL: EIVMTQSPATLTLSPGERATLSCRASQSISAYLGWYQQKPGQAPRLLIYDASIRATGIPDRFSGSGSGTDFTLTISSLEPEDSAVYYCHQRSKWPLTFGGGTKVEIK
On to B4, for which the 50% effective concentration (EC50) in test [13] was determined as 4 nM; in test [14], 26 nM; in [15] it was 10 nM; in [5], 4 nM; in [6] it was 26 nM; in [16], 0.1 nM. Besides, in [7], the EC50 was 10 nM.

B5: NI-302.33C11 (antibody, V domains shown)
VH: EVQLVESGGGVVQPGNSLRLSCAASGFRFSDFGMHWVRQAPGKGLEWLALIWYDGGYKYYADSVKGRFTISRDNSKNTMFLQMNSLRAEDTAVYYCATHLEYCSRTTCYLGHWGQGTLVTVSS
VL: DIQLTQSPSFLSASVGDTVTFTCRASQGISDYLAWFQQKPGIAPKLLIYAASTLQTGVPSRFSGSGSGTEFTLTIRSLQSEDFGTYYCQQLKTYPYTFGQGTKVEIK
Turning to B5, the EC50 in test [17] was 0.13 nM; in test [18], 0.15 nM; in test [19], 0.11 nM; in test [20] it was 0.1 nM; in test [5], 0.13 nM; in [6], 0.15 nM. Further, in [7], the EC50 amounted to 0.11 nM.
